Consider one molecule from patent US20140105905A1 (Amgen, published 2014).

Test [1] deals with T1, recombinant human Interleukin-8 (human, UniProt P10145 28-99).
T1 construct: also called rhIL-8; IL-8
T1 sequence (looked up): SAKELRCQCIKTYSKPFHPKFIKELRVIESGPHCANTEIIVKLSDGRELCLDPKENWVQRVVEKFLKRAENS
Briefly: not named in this sentence (summary of the filing's own affinity results).

Test [2] concerns the target T1, recombinant human Interleukin-8. Briefly: KinExA "Kinetics, Direct" method. From the text:
(§1) For measuring the association rate constant using KinExA, the same rhIL-8-coupled beads were used as the probe and the “Kinetics, Direct” method was used. The “Kinetics, Direct” experiments by KinExA are identical to KinExA equilibrium assays with respect to bead column height, antibody capture, antibody concentration and antibody detection. Briefly, the mAb was mixed with an amount of antigen that bound approximately 80% of the mAb in the equilibrium experiments and the free antibody present in the sample was probed repeatedly, pre-equilibrium. […] The volumes and flow rates of the antigen-mAb mixtures and the Cy5-labeled secondary antibody were varied depending upon the mAb tested. Data was analyzed utilizing the KinExA analysis software that comes with the KinExA 3000 instrument. This software graphically represents the decrease in binding signals over time, and fits the collected data points to an exact solution of the kinetic differential equations for binding. From this curve, an optimal solution for the kₒₙ is determined. The koff is indirectly calculated from solutions for the kₒₙ and Kd.
(§2) The on-rate measurement by KinExA is not limited by the mAb concentration used in the experiment. […] The concentration of mAb used for on-rate experiments was the same as those used in equilibrium binding experiments. An amount of IL-8 that bound 80% of the mAb in equilibrium binding experiments was mixed with the mAb. The amount of free mAb left in the mixture was measured in KinExA by flowing 1 ml of the mixture repeatedly through rhIL-8 coupled to NHS-activated Sepharose beads and detected using 1 ml of 2.0 μg/ml of Cy5-labeled goat anti-human IgG Fcγ fragment-specific secondary antibody. The kₒₙ was measured using the KinExA software by the “Kinetic, Direct” method and the 95% confidence intervals are given as kₒₙ range. The koff for the mAb was calculated from the measured kₒₙ and Kd of the respective mAb.

Test [3] addresses T2, IL-8 peptide ELRCQCIKTYSK (human).
T2 peptide: ELRCQCIKTYSK
Description: overlapping IL-8 peptides on a membrane; column "Recognized epitope". As to the method:
Briefly, overlapping IL-8 peptides, which were each two amino acids c-terminal to the previous peptide (as shown in FIG. 8) were prepared and attached to a membrane. Antibodies were then added and allowed to bind to the peptides.

Test [4] has as its target T1, recombinant human Interleukin-8. Description: KinExA equilibrium in solution, 36 h, mAb 20 pM. On the procedure: The experiments with KinExA were performed using an automated flow immunoassay system, KinExA 3000 [Ohmura et al., Anal. Chem. 73:3392, 2001] in which rhIL-8-coupled beads served as the solid phase. […] Antigen/antibody complexes were incubated at RT for 36 h to 144 h to allow equilibrium to be reached. The mixture was drawn through the rhIL-8-coupled beads to accumulate unbound antibody. The captured anti-hIL-8 mAb is directly proportional to the remaining free binding sites and was detected using solutions containing Cy5-conjugated anti-human secondary antibody in sample buffer. The concentrations, volumes, and flow rates of the secondary antibody solutions were varied to optimize the signal to noise ratio in each experiment. The bound signals were converted into relative values as a proportion of control in the absence of rhIL-8. The equilibrium dissociation constant (Kd) was obtained from nonlinear regression analysis of the data using a one-site homogeneous binding model contained within the software [Blake et Al., Anal. Biochem. 272:123, 1999; Jones et al., Bioconjug Chem 13:408, 2002]. […]
A proportionate amount of free mAb present in the equilibrium mixture was measured by flowing 0.25 ml to 3 ml of the sample on rhIL-8 coupled to CNBr-activated Sepharose beads and detected using 1.0 ml of 1.7 μg/ml of Cy5-labeled goat anti-human IgG Fcγ fragment-specific secondary antibody. […]
Background: Kinetic exclusion samples the free partner from a solution-phase mixture.

The target is the same in test [5]. Briefly: KinExA equilibrium, optimized, n-curve analysis, mAb 0.68, 2.0 and 13.7 pM. From the text:
The equilibrium dissociation constant (Kd) was obtained from nonlinear regression analysis of the data using a one-site homogeneous binding model contained within the software [Blake et Al., Anal. Biochem. 272:123, 1999; Jones et al., Bioconjug Chem 13:408, 2002]. The software calculates the Kd and determines the 95% confidence interval by fitting the data points to a theoretical Kd curve. The 95% confidence interval is given as Kd low and Kd high.
A proportionate amount of free mAb present in the equilibrium mixture was measured in KinExA under optimized conditions. For example, for the mixtures containing the low concentration of mAb, 18-36 ml of the sample was flown through rhIL-8 coupled to NHS-activated Sepharose beads and detected using 1-2 ml of 2.0 μg/ml of Cy5-labeled goat anti-human IgG Fcγ fragment-specific secondary antibody. The Kd was calculated using KinExA software by using the “n-curve analysis” selection.

Test [6] has the same target. Description: KinExA equilibrium, low mAb concentration experiments analyzed in single curves. As to the method: Antigen/antibody complexes were incubated at RT for 36 h to 144 h to allow equilibrium to be reached. The mixture was drawn through the rhIL-8-coupled beads to accumulate unbound antibody. The captured anti-hIL-8 mAb is directly proportional to the remaining free binding sites and was detected using solutions containing Cy5-conjugated anti-human secondary antibody in sample buffer. The concentrations, volumes, and flow rates of the secondary antibody solutions were varied to optimize the signal to noise ratio in each experiment. The bound signals were converted into relative values as a proportion of control in the absence of rhIL-8. The equilibrium dissociation constant (Kd) was obtained from nonlinear regression analysis of the data using a one-site homogeneous binding model contained within the software [Blake et Al., Anal. Biochem. 272:123, 1999; Jones et al., Bioconjug Chem 13:408, 2002]. […]
A proportionate amount of free mAb present in the equilibrium mixture was measured in KinExA under optimized conditions. For example, for the mixtures containing the low concentration of mAb, 18-36 ml of the sample was flown through rhIL-8 coupled to NHS-activated Sepharose beads and detected using 1-2 ml of 2.0 μg/ml of Cy5-labeled goat anti-human IgG Fcγ fragment-specific secondary antibody. […]

The target is the same in test [7]. Description: calculated from KinExA kon and Kd.
Text: as §1, §2

B1: anti-hIL-8 mAb 928 (antibody, human IgG2, V domains shown)
VH: QVQLVESGGGVVQPGRSLRLSCAASGFTFSSYGMLWVRQAPGKGLEWVADISYDGSNKYYADSVKGRFTISRDNSKNTLYLQMNSLRAEDTAVFYCARDRIAVADYWGQGTLVTVSS
VL: EIVLTQSPGTLSLSPGERATLSCRASQSVSSSFLAWYQQKPGQAPRLLIYGASSRATGIPDRFSGSGSGTDFILTISRLEPEDFAVYYCQQYDSSFTFGPGTKVDIK
Turning to B1, the Kd is approximately 0.06 pM in test [1], 0.057 pM in test [4], 0.613 pM in test [5] and 0.59 pM in test [6]. The kon in test [2] was 6e+06 M⁻¹ s⁻¹. Further, the binding result in test [3] was “binds”. Also, the koff in test [7] was 3.7e-06 s⁻¹.

In general, Kd refers to the constant that tells how readily two partners part at equilibrium. By kon is commonly meant the rate constant with which the complex forms. One may read the koff as a measure of how fast the partners let go of each other.
